Assay: Encapsulation of cationic peptide IB510 in liposomes (extrusion, BioGel column, LSC/HPLC)
Type: physicochemical
Conditions: ATTA8-DSPE versus PEG-PE
Description: Lipid films (total of 100 mg of lipid) were prepared by dissolving appropriate quantities of individual lipids in 200 to 500 μL of chloroform, mixing the lipids, then removing the chloroform under high vacuum. Specifically, prepared lipid films were sphingomyelin/cholesterol/PEG-PE (50/45/5 molar ratios; prepared from 53.2 mg sphingomyelin, 26 mg cholesterol and 20 mg PEG-PE) and sphingomyelin/cholesterol/ATTA8-DSPE (50/45/5 molar ratios; prepared from 53.2 mg sphingomyelin, 26 mg cholesterol and 20 mg ATTA8-DSPE) and contained 1 μCi of 3H-cholesterylhexadecylether as a radiolabelled tracer. […] 5 μl were removed for phosphate assay to quantify the phospholipid and for liquid scintillation counting (LSC). […]
Aliquots of 200-400 μL of the large unilamellar vesicles containing IB510 were passed over a 20 cm×1 cm BioGel A-15 m (50-100 mesh) column pre-equilibrated in 150 mM NaCl and 20 mM Hepes (pH 7.5). […] The concentrations of liposomes and peptide were quantified by LSC and HPLC, respectively. Encapsulation efficiency was calculated from the post-column peptide/lipid ratio divided by the precolumn peptide/lipid ratio. […]

Substance	encapsulation efficiency (comparison in words)
N-(ω-azido-octa-(14′-amino-3′,6′,9′,12′-tetraoxatetradecanoyl))-1,2-distearoyl-sn-glycero-3-phosphoethanolamine [ATTA8-DSPE]	superior to PEG-PE
Octa-(14-amino-3,6,9,12-tetraoxatetradecanoic acid) [ATTA8]	superior to PEG
